# From paper PMC3897721, “Structure of Utp21 Tandem WD Domain Provides Insight into the Organization of the UTPB Complex Involved in Ribosome Synthesis” (PLoS ONE, 2014)
# T1: Utp21 1–684 (tandem WD domain, GST-tag cleaved) (yeast (S. cerevisiae), UniProt Q06078 1-684)
# T1 construct: The methods say only 'purified as described above' for the protein of the pull-down; also called tandem WD domain of Utp21; source: E. coli BL21(DE3), purified (Glutathione Sepharose, on-bead PreScission cleavage, Superdex 200); not shown: GST, N-terminal, cleaved
# T1 sequence (looked up): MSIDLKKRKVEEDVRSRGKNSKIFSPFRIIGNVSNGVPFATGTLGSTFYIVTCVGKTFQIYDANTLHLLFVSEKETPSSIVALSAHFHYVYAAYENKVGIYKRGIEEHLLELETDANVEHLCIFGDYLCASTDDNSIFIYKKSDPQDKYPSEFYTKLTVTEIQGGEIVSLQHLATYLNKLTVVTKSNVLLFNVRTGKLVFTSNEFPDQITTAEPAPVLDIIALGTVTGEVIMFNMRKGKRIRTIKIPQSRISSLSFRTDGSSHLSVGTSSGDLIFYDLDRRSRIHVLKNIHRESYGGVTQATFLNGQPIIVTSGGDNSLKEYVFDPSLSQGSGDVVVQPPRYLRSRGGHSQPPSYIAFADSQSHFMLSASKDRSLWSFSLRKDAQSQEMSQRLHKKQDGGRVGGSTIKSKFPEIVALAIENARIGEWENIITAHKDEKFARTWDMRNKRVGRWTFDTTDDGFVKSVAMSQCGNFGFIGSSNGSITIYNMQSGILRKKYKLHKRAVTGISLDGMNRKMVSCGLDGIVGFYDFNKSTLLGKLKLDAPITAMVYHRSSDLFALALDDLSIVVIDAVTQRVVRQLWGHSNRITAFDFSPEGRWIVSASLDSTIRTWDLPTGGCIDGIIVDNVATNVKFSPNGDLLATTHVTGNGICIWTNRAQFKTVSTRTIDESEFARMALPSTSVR
# B1: His6-Smt3-Utp18 100–139 (domain or fragment, yeast (S. cerevisiae), UniProt P40362 100-139, looked up)
# chain: EDTMDVDDEDDSSSDDYSEDSEEAAWIDSDDEKIKVPILV
# notes: Utp18, yeast (S. cerevisiae), residues 100–139; source: expressed from pET28a, purified (HisTrap and Q chromatography); not shown: His6, N-terminal, kept; Smt3, N-terminal, kept
# B2: His6-Smt3-Utp18 139–190 (domain or fragment, yeast (S. cerevisiae), UniProt P40362 139-190, looked up)
# chain: VTNKTKKLRTSYNESKINGVHYINRLRSQFEKIYPRPKWVDDESDSELDDEE
# notes: Utp18, yeast (S. cerevisiae), residues 139–190; source: expressed from pET28a, purified (HisTrap and Q chromatography); not shown: His6, N-terminal, kept; Smt3, N-terminal, kept
# B3: His6-Smt3-Utp18 100–190 (domain or fragment, yeast (S. cerevisiae), UniProt P40362 100-190, looked up)
# chain: EDTMDVDDEDDSSSDDYSEDSEEAAWIDSDDEKIKVPILVTNKTKKLRTSYNESKINGVHYINRLRSQFEKIYPRPKWVDDESDSELDDEE
# notes: Utp18, yeast (S. cerevisiae), residues 100–190; source: expressed from pET28a, purified (HisTrap and Q chromatography); not shown: His6, N-terminal, kept; Smt3, N-terminal, kept
# Target: T1, Utp21 1–684 (tandem WD domain, GST-tag …)
# Test: pull-down; His6-Smt3-tagged Utp18 fragments (0.95 nmol) incubated with Utp21 1–684 (1.9 nmol) 2 h at 4°C, bound to Ni Sepharose beads; washed with 25 mM Tris-HCl pH 7.6, 500 mM NaCl, 10 mM imidazole; SDS-PAGE, Coomassie
# Settings: both partners purified
row,Binder,binding result
1,B1,binds
2,B2,binds
3,B3,binds
